From patent publication US20200264162A1

Biological target: tau-RFP (full-length 2N4R wild-type tau fused to the N-terminus of TagRFP) (UniProt P10636)
Test: fluorescence lifetime FRET in live HEK293 cells, titration of tau-RFP acceptor to tau-GFP donor

maximum energy transfer efficiency (E): 0.086
Substance: tau-GFP (full-length 2N4R wild-type tau fused to the N-terminus of EGFP) (from UniProt P10636 2-758)
